Reference: paper PMC6615639, “A broadly neutralizing germline-like human monoclonal antibody against dengue virus envelope domain III” (PLoS Pathogens, 2019)

Tests used:
[1] = molecular target: T1, DENV-1 envelope protein domain III (DIII), fused with IgG1 Fc and a C-terminal Avi-tag (Dengue virus type 1, strain ; …, UniProt B6DXD2); test: SPR; conditions: both partners purified
T1 construct: also called DENV-1 DIII; DENV1 DIII

[2] = molecular target: T2, DENV-2 envelope protein domain III (DIII), fused with IgG1 Fc and a C-terminal Avi-tag (Dengue virus type 2, strain ; …); test: SPR; conditions: both partners purified
T2 construct: also called DENV-2 DIII; DENV2 DIII
T2 chain: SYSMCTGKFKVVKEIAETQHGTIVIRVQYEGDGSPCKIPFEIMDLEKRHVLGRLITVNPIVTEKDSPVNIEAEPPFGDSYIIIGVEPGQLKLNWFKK

[3] = molecular target: T3, DENV-3 envelope protein domain III (DIII), fused with IgG1 Fc and a C-terminal Avi-tag (Dengue virus type 3, strain ; …, UniProt Q99D35); test: SPR; conditions: both partners purified
T3 construct: also called DENV-3 DIII; DENV3 DIII

[4] = molecular target: T4, DENV-4 envelope protein domain III (DIII), fused with IgG1 Fc and a C-terminal Avi-tag (Dengue virus type 4, strain ; …, UniProt P09866); test: SPR; conditions: both partners purified
T4 construct: also called DENV-4 DIII; DENV4 DIII

[5] = molecular target: T1, DENV-1 envelope protein domain III …; test: cell-based or functional assay
[6] = molecular target: T2, DENV-2 envelope protein domain III …; test: cell-based or functional assay
[7] = molecular target: T3, DENV-3 envelope protein domain III …; test: cell-based or functional assay
[8] = molecular target: T4, DENV-4 envelope protein domain III …; test: cell-based or functional assay

B1: m366.6 scFv-Fc (scFv, V domains shown)
VH: QLQLQESGGGLVQPGGSLRLSCAASGFTFSSHSMNWIRQAPGKRLEWVSSISSSSSYIYYADSVRGRFTISRDNAKNSLYLQMDSLRAEDTAVYYCARYMAGIWTFDIWGQGTMVTVSS
VL: SYELTQPPSVSVAPGKTASISCGGDNIGRKSVHWFQQKPGQAPVLVLYDDSDRPSGIPARFSGSNSGNTATLTISGVEAGDEADYYCQVWARSSDLPNWVFGGGTKLTVL
notes: also called mAb m366.6
- Kd [1]: 780 pM
- koff [1]: 0.00025 s⁻¹
- kon [1]: 320000 M⁻¹ s⁻¹
- Kd [2]: 290 pM
- koff [2]: 0.00025 s⁻¹
- kon [2]: 960000 M⁻¹ s⁻¹
- Kd [3]: 270 pM
- koff [3]: 0.00018 s⁻¹
- kon [3]: 660000 M⁻¹ s⁻¹
- Kd [4]: 1900 pM
- koff [4]: 0.00062 s⁻¹
- kon [4]: 330000 M⁻¹ s⁻¹
- other [5]: 22 µg/mL
- other [6]: 2.4 µg/mL
- other [7]: 0.85 µg/mL
- other [8]: 0.36 µg/mL
